T1: human ALK epitope peptide (amino acids 391-406 of the ALK protein) (human)
T1 construct: In the yeast two-hybrid screen it was a C-terminal fusion to LexA; also called Alk LBD peptide; Alk LBD
T1 peptide: GRIGRPDNPFRVALEY


Molecular target: T1, human ALK epitope peptide (amino acids …)
Assay: ELISA; the coated antigen is not named on the sheet or in the legend, taken as the ALK epitope peptide

| binding result | Binder |
| --- | --- |
| binds | 43.2 (scFv, One of the seven improved scFvs (group m4); The full chain is assembled from ESBA521 with its VH CDR2 exchanged) scFv (VL-linker-VH): QSVLTQPPSVSAAPGQKVTISCSGSTSNIGDNYVSWYQQLPGTAPQLLIYDNTKRPSGIPDRFSGSKSGTSATLGITGLQTGDEADYYCATWDNDKWGVVFGGGTKLEVLGGGGGSGGGGSGGGGSSGGGSEVQLVESGGGLVQPGGSLRLSCAASGFTFSSYAMSWVRQAPGKGLEWVSAIRTNSKEYYADSVKGRFTISRDNSKNTLYLQMNSLRAEDTAVYYCARDAWLDVLSDGFDYWGQGTLVTVSS |
| binds | 2.11 (scFv, One of the seven improved scFvs (group m4); The full chain is assembled from ESBA521 with its VH CDR2 exchanged; also called scFv 2.11) scFv (VL-linker-VH): QSVLTQPPSVSAAPGQKVTISCSGSTSNIGDNYVSWYQQLPGTAPQLLIYDNTKRPSGIPDRFSGSKSGTSATLGITGLQTGDEADYYCATWDNDKWGVVFGGGTKLEVLGGGGGSGGGGSGGGGSSGGGSEVQLVESGGGLVQPGGSLRLSCAASGFTFSSYAMSWVRQAPGKGLEWVSAIRTDSKEQYYADSVKGRFTISRDNSKNTLYLQMNSLRAEDTAVYYCARDAWLDVLSDGFDYWGQGTLVTVSS |
| binds | 265.1 (scFv, One of the seven improved scFvs (group m4); The full chain is assembled from ESBA521 with its VH CDR2 exchanged) scFv (VL-linker-VH): QSVLTQPPSVSAAPGQKVTISCSGSTSNIGDNYVSWYQQLPGTAPQLLIYDNTKRPSGIPDRFSGSKSGTSATLGITGLQTGDEADYYCATWDNDKWGVVFGGGTKLEVLGGGGGSGGGGSGGGGSSGGGSEVQLVESGGGLVQPGGSLRLSCAASGFTFSSYAMSWVRQAPGKGLEWVSAINMKGNDRYYADSVKGRFTISRDNSKNTLYLQMNSLRAEDTAVYYCARDAWLDVLSDGFDYWGQGTLVTVSS |
| binds | 100.2 (scFv, One of the seven improved scFvs (group m4); The full chain is assembled from ESBA521 with its VH CDR2 exchanged) scFv (VL-linker-VH): QSVLTQPPSVSAAPGQKVTISCSGSTSNIGDNYVSWYQQLPGTAPQLLIYDNTKRPSGIPDRFSGSKSGTSATLGITGLQTGDEADYYCATWDNDKWGVVFGGGTKLEVLGGGGGSGGGGSGGGGSSGGGSEVQLVESGGGLVQPGGSLRLSCAASGFTFSSYAMSWVRQAPGKGLEWVSAIKTDGNHKYYADSVKGRFTISRDNSKNTLYLQMNSLRAEDTAVYYCARDAWLDVLSDGFDYWGQGTLVTVSS |
| binds | 4.12 (scFv, One of the seven improved scFvs (group m4); The full chain is assembled from ESBA521 with its VH CDR2 exchanged) scFv (VL-linker-VH): QSVLTQPPSVSAAPGQKVTISCSGSTSNIGDNYVSWYQQLPGTAPQLLIYDNTKRPSGIPDRFSGSKSGTSATLGITGLQTGDEADYYCATWDNDKWGVVFGGGTKLEVLGGGGGSGGGGSGGGGSSGGGSEVQLVESGGGLVQPGGSLRLSCAASGFTFSSYAMSWVRQAPGKGLEWVSAINTRGQNEYYADSVKGRFTISRDNSKNTLYLQMNSLRAEDTAVYYCARDAWLDVLSDGFDYWGQGTLVTVSS |
| binds | 33.11 (scFv, One of the seven improved scFvs (group m4); The full chain is assembled from ESBA521 with its VH CDR2 exchanged; also called scFv 33.11) scFv (VL-linker-VH): QSVLTQPPSVSAAPGQKVTISCSGSTSNIGDNYVSWYQQLPGTAPQLLIYDNTKRPSGIPDRFSGSKSGTSATLGITGLQTGDEADYYCATWDNDKWGVVFGGGTKLEVLGGGGGSGGGGSGGGGSSGGGSEVQLVESGGGLVQPGGSLRLSCAASGFTFSSYAMSWVRQAPGKGLEWVSAINTGGGSTYYADSVKGRFTISRDNSKNTLYLQMNSLRAEDTAVYYCARDAWLDVLSDGFDYWGQGTLVTVSS |
